pKi: −log10 of the molar value. Bounds are passed on as bounds.

The text below walks through data of publication PMC10889554.

Experiment [1] addresses human cathepsin V (human) (UniProt O60911). Description: enzyme inhibition kinetics (fluorogenic peptide substrate activity assay); inhibitor preincubated with protease 15 min, 37 °C; IC50 from residual velocities, Ki by the Cheng-Prusoff equation; 50 mM sodium acetate pH 5.5, 0.1% polyethylene glycol 1500, 2.5 mM dithiothreitol (cathepsins L, K, V, B, F, C and papain; 50 mM NaCl for cathepsin C).

In experiment [2] the target is human cathepsin L (human). The description is as above.
The target of experiment [3] is human cathepsin K (human) (UniProt P43235). The experiment is described as above.
Sequence of human cathepsin K (human) (P43235 115-329): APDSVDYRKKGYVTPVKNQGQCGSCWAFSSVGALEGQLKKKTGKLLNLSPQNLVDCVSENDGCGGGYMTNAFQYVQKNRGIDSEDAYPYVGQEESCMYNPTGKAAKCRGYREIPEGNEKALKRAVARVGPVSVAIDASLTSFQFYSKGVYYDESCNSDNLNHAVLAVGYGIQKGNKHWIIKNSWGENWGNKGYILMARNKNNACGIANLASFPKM
Experiment [4] has as its target human cathepsin V (human) (UniProt O60911).
Experiment [5] concerns the target human cathepsin L (human).
For experiment [6], the target named is human cathepsin K (human) (UniProt P43235).
The target is the same in experiment [7]. This is another data set of the same source.

Sequence of human cathepsin V (human) (O60911 114-334): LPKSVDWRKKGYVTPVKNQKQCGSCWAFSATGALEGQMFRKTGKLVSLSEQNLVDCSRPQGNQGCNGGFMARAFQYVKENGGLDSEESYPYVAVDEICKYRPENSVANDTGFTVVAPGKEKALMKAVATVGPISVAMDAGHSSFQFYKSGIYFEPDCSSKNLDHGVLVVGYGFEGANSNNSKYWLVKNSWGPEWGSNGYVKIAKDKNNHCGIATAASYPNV

The pKi is the Ki on a negative log10 scale, so that one unit is a factor of ten. High values mean a low Ki, low ones a high Ki. Regarding “IrThy-Cd, recombinant C-terminal Tg1 domain of IrThy (domain or fragment)”, the pKi in experiment [1] is 7.39; in experiment [2], 6.10; in experiment [3], 7.27.

On to “Ir-thyropin (IrThy), recombinant full-length mature protein (natural protein)”, for which, in experiment [4], the % inhibition of cathepsin V activity by IrThy, no GAG, pH 5.5 amounted to 25%. Further, the change of % inhibition of cathepsin L activity by IrThy with GAGs at 10 µg/mL in experiment [5] is less than 15%. In experiment [6], the % inhibition of cathepsin K activity by IrThy with chondroitin-4-sulfate at 10 µg/mL was found to be 16%; the % inhibition of cathepsin K activity by IrThy with chondroitin-6-sulfate at 10 µg/mL amounted to 23%; the % inhibition of cathepsin K activity by IrThy, no GAG, pH 5.5 came out at 50%. For the same substance, in experiment [7], the reduction of inhibition of cathepsin K activity by IrThy with 0.3 M NaCl, without heparin is 20%. The pKi in experiment [1] was 7.46. The negative-log Ki (pKi) in experiment [2] was 6.70. Moreover, the pKi in experiment [3] is 7.24.
